# Data reported in patent EP4624487A1.
# Biological target: antiserum C2
# Assay: competition ELISA: peptide added to C2 on plate-bound hTNFα
Binder,OD450 with peptide,inhibition rate (%)
DKPVAHVVANPQAEG [hTNFα peptide H(10-24)],1.74,8%
ANGVELRDNQLVVPS [hTNFα peptide H(38-52)],1.42,19%
LSAIKSPCQRETPEG [hTNFα peptide H(94-108)],1.79,6%
GDRLSAEINRPDYLD [hTNFα peptide H(129-143)],1.78,12%
LQWLNRRANALLANG [hTNFα peptide H(26-40)],0.313,82%
QVLFKGQGCPSTHVL [hTNFα peptide H(61-75)],1.73,10%
AHVVANPQAEGQLQW [hTNFα peptide H(14-28)],1.65,7%
ISRIAVSYQTKVNLL [hTNFα peptide H(80-94)],1.7,12%
SEGLYLIYSQVLFKG [hTNFα peptide H(52-66)],1.35,21%
QTKVNLLSAIKSPCQ [hTNFα peptide H(88-102)],1.78,5%
LGGVFQLEKGDRLSA [hTNFα peptide H(120-134)],1.77,10%
HVLLTHTISRIAVSY [hTNFα peptide H(73-87)],1.79,-1%

# Biological target: antiserum B1
# Assay: competition ELISA: peptide added to B1 on plate-bound hTNFα
Binder,OD450 with peptide,inhibition rate (%)
NQLVVPSEGLYLIYS [hTNFα peptide T(46-60)],1.16,10%
PIYLGGVFQLEKGDR [hTNFα peptide H(117-131)],1.2,0%
DRLSAEINRPDYLDF [hTNFα peptide T(130-144)],1.11,9%
VNLLSAIKSPCQRET [hTNFα peptide T(91-105)],1.17,3%
SDKPVAHVVANPQAE [hTNFα peptide T(9-23)],1.06,4%
PCQRETPEGAEAKPW [hTNFα peptide T(100-114)],1.06,14%
VRSSSRTPSDKPVAH [hTNFα peptide T(1-15)],1.1,13%
LTHTISRIAVSYQTK [hTNFα peptide T(76-90)],1.12,13%
RRANALLANGVELRD [hTNFα peptide T(31-45)],0.106,91%
GQLQWLNRRANALLA [hTNFα peptide T(24-38)],0.103,92%
NGVELRDNQLVVPSE [hTNFα peptide T(39-53)],1.01,23%
VVANPQAEGQLQWLN [hTNFα peptide T(16-30)],1.06,9%
